Experiments:
[1] = biological target: human α-CGRP K35A (19-37) (human); test: SPR (Biacore), 25 °C, Fab over peptide on SA chip; KD of mutant over KD of parent 19-37
[2] = biological target: human α-CGRP V32A (25-37) (human); test: SPR (Biacore), 25 °C, Fab over peptide on SA chip; KD of mutant over KD of parent 25-37
[3] = biological target: human α-CGRP F37A (25-37) (human); test: as above
[4] = biological target: human α-CGRP P29A (25-37) (human); test: as above
[5] = biological target: human α-CGRP T30A (25-37) (human); test: as above
[6] = biological target: human α-CGRP S34A (25-37) (human); test: as above
[7] = biological target: human α-CGRP N31A (25-37) (human); test: as above
[8] = biological target: human α-CGRP G33A (25-37) (human); test: as above

Work on “murine anti-CGRP monoclonal antibody 7E9, Fab fragment” yielded a KD (mutant/parent) [1] of 4, a KD (mutant/parent) [2] of 41 and a KD (mutant/parent) [3] of 3600. The KD (mutant/parent) [4] was 26, the KD (mutant/parent) [5] was 7 and the KD (mutant/parent) [6] was 69. The KD (mutant/parent) [7] was 9 and the KD (mutant/parent) [8] was 1260.
